This is an account of results in the supplement of paper PMC9112550, “Optimization of the antimicrobial peptide Bac7 by deep mutational scanning” (BMC Biology, 2022).

This data set relates to Escherichia coli TOP10. The data set can be described thus: shrunken log2 fold change of peptide-encoding DNA abundance (4.5 h post-induction vs induction); higher = less antimicrobial activity (less host growth inhibition). Conditions: time post-induction: 4.5 h; library: site-saturation at positions 5, 18, 19, 20.
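Also: peptides expressed intracellularly from a pBAD plasmid library in pooled LB shake-flask culture, induced with 0.3% L-arabinose, DNA abundance read by NGS, three biological replicates, DESeq2 with apeglm shrinkage.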

With RRIRFRPPRLPRPRPRPHECPRP, the “shrunken log2 fold change” value is 0.0366.

In the case of RRIRYRPPRLPRPRPRPHGKPRP, the “shrunken log2 fold change” value is 0.0161.

With RRIRSRPPRLPRPRPRPVDAPRP, the “shrunken log2 fold change” value was found to be 0.0786.

Turning to RRIRPRPPRLPRPRPRPHNVPRP, the “shrunken log2 fold change” value is -0.104.

As to RRIRDRPPRLPRPRPRPKERPRP, the “shrunken log2 fold change” value was -0.0193.

RRIRARPPRLPRPRPRPWLWPRP: the “shrunken log2 fold change” value is 0.435.

Turning to RRIRKRPPRLPRPRPRPNCDPRP, the “shrunken log2 fold change” value came to 0.142.

On to RRIRHRPPRLPRPRPRPTFSPRP, for which the “shrunken log2 fold change” value is -0.22.

Regarding RRIRFRPPRLPRPRPRPSVFPRP, the “shrunken log2 fold change” value is -0.165.

As for RRIRQRPPRLPRPRPRPMNKPRP, the “shrunken log2 fold change” value is -0.169.

In the case of RRIRPRPPRLPRPRPRPWHFPRP, the “shrunken log2 fold change” value was -0.12.

As to RRIRKRPPRLPRPRPRPWVKPRP, the “shrunken log2 fold change” value was -0.148.

Regarding RRIRRRPPRLPRPRPRPLTYPRP, the “shrunken log2 fold change” value was -0.204.

In the case of RRIRARPPRLPRPRPRPGISPRP, the “shrunken log2 fold change” value was 0.337.

Turning to RRIRGRPPRLPRPRPRPTNKPRP, the “shrunken log2 fold change” value came out at 0.242.

Regarding RRIRSRPPRLPRPRPRPNDYPRP, the “shrunken log2 fold change” value was -1.18.

With RRIRGRPPRLPRPRPRPDWNPRP, the “shrunken log2 fold change” value amounted to 0.361.

RRIRGRPPRLPRPRPRPYNVPRP: the “shrunken log2 fold change” value was -0.126.

As for RRIRPRPPRLPRPRPRPPMDPRP, the “shrunken log2 fold change” value worked out at 0.126.

For the sequence RRIRPRPPRLPRPRPRPKDIPRP, the “shrunken log2 fold change” value is -0.801.

Consider RRIRGRPPRLPRPRPRPKEEPRP, for which the “shrunken log2 fold change” value amounted to 1.58.

As for RRIRDRPPRLPRPRPRPCMPPRP, the “shrunken log2 fold change” value is 0.0198.

Consider RRIRMRPPRLPRPRPRPCMVPRP, for which the “shrunken log2 fold change” value is -0.417.

For RRIRIRPPRLPRPRPRPAHFPRP, the “shrunken log2 fold change” value worked out at 0.0262.

For the sequence RRIRTRPPRLPRPRPRPCPFPRP, the “shrunken log2 fold change” value is -0.484.

As to RRIRLRPPRLPRPRPRPQLTPRP, the “shrunken log2 fold change” value was found to be 0.103.

For the sequence RRIRRRPPRLPRPRPRPLGIPRP, the “shrunken log2 fold change” value was determined as 0.984.

With RRIRHRPPRLPRPRPRPWGWPRP, the “shrunken log2 fold change” value came to 0.284.

With RRIRLRPPRLPRPRPRPWFSPRP, the “shrunken log2 fold change” value is -0.225.

Take RRIRTRPPRLPRPRPRPHKCPRP: the “shrunken log2 fold change” value turned out to be 0.215.

As for RRIRVRPPRLPRPRPRPNYLPRP, the “shrunken log2 fold change” value was -0.102.

In the case of RRIRHRPPRLPRPRPRPHRTPRP, the “shrunken log2 fold change” value is -0.179.

Regarding RRIRLRPPRLPRPRPRPDNDPRP, the “shrunken log2 fold change” value was -0.228.

Regarding RRIRPRPPRLPRPRPRPTIRPRP, the “shrunken log2 fold change” value is 0.172.

Regarding RRIRKRPPRLPRPRPRPVVRPRP, the “shrunken log2 fold change” value is -0.0886.

For RRIRYRPPRLPRPRPRPKDCPRP, the “shrunken log2 fold change” value was -0.494.

For the sequence RRIRIRPPRLPRPRPRPNCDPRP, the “shrunken log2 fold change” value is -0.486.

On to RRIRCRPPRLPRPRPRPIQEPRP, for which the “shrunken log2 fold change” value was 0.0221.

RRIRTRPPRLPRPRPRPEWDPRP: the “shrunken log2 fold change” value was 0.064.

With RRIRMRPPRLPRPRPRPYTTPRP, the “shrunken log2 fold change” value is -0.335.

Turning to RRIRWRPPRLPRPRPRPLCFPRP, the “shrunken log2 fold change” value was -0.101.

For the sequence RRIRHRPPRLPRPRPRPNPRPRP, the “shrunken log2 fold change” value was -0.0621.

On to RRIRHRPPRLPRPRPRPAARPRP, for which the “shrunken log2 fold change” value stood at 0.168.

On to RRIRCRPPRLPRPRPRPIYIPRP, for which the “shrunken log2 fold change” value was -0.43.

Regarding RRIRLRPPRLPRPRPRPEYDPRP, the “shrunken log2 fold change” value came out at 0.0855.

As to RRIRERPPRLPRPRPRPDSPPRP, the “shrunken log2 fold change” value was -0.184.

For the sequence RRIRTRPPRLPRPRPRPWWTPRP, the “shrunken log2 fold change” value was -0.045.

With RRIRCRPPRLPRPRPRPVMEPRP, the “shrunken log2 fold change” value was -0.0475.

Consider RRIRQRPPRLPRPRPRPTRFPRP, for which the “shrunken log2 fold change” value was 0.04.

For RRIRSRPPRLPRPRPRPWALPRP, the “shrunken log2 fold change” value is -0.0699.

On to RRIRKRPPRLPRPRPRPCVFPRP, for which the “shrunken log2 fold change” value is 0.204.

In the case of RRIRRRPPRLPRPRPRPLNYPRP, the “shrunken log2 fold change” value was -0.365.

RRIRVRPPRLPRPRPRPSYEPRP: the “shrunken log2 fold change” value was -0.298.

For the sequence RRIRRRPPRLPRPRPRPDDLPRP, the “shrunken log2 fold change” value is -0.128.

Take RRIRFRPPRLPRPRPRPCGSPRP: the “shrunken log2 fold change” value was 0.06.

For the sequence RRIRNRPPRLPRPRPRPYMQPRP, the “shrunken log2 fold change” value is -0.315.

Consider RRIRARPPRLPRPRPRPMLKPRP, for which the “shrunken log2 fold change” value is 0.216.

As to RRIRARPPRLPRPRPRPFRCPRP, the “shrunken log2 fold change” value was -0.0823.

For the sequence RRIRMRPPRLPRPRPRPKRAPRP, the “shrunken log2 fold change” value was found to be 2.44.

For RRIRCRPPRLPRPRPRPQEIPRP, the “shrunken log2 fold change” value is -0.0405.

As to RRIRLRPPRLPRPRPRPDYKPRP, the “shrunken log2 fold change” value was -0.354.

As for RRIRGRPPRLPRPRPRPYRIPRP, the “shrunken log2 fold change” value is 0.178.

On to RRIRRRPPRLPRPRPRPSQPPRP, for which the “shrunken log2 fold change” value was 0.104.

As for RRIRRRPPRLPRPRPRPEIFPRP, the “shrunken log2 fold change” value stood at 0.215.

As for RRIRERPPRLPRPRPRPCPGPRP, the “shrunken log2 fold change” value was -0.451.

For the sequence RRIRDRPPRLPRPRPRPWHDPRP, the “shrunken log2 fold change” value is 0.0315.

Regarding RRIRIRPPRLPRPRPRPTRKPRP, the “shrunken log2 fold change” value is -0.101.

As to RRIRERPPRLPRPRPRPILNPRP, the “shrunken log2 fold change” value was determined as 2.73.

In the case of RRIRDRPPRLPRPRPRPQEYPRP, the “shrunken log2 fold change” value was -0.0984.

For the sequence RRIRKRPPRLPRPRPRPCNYPRP, the “shrunken log2 fold change” value is -0.0312.

As for RRIRFRPPRLPRPRPRPQGLPRP, the “shrunken log2 fold change” value is -0.462.

For the sequence RRIRKRPPRLPRPRPRPDMPPRP, the “shrunken log2 fold change” value came to 0.122.

For the sequence RRIRERPPRLPRPRPRPNNAPRP, the “shrunken log2 fold change” value was -0.162.

As for RRIRCRPPRLPRPRPRPRWMPRP, the “shrunken log2 fold change” value was 0.346.

Regarding RRIRSRPPRLPRPRPRPFTDPRP, the “shrunken log2 fold change” value is -0.04.

In the case of RRIRQRPPRLPRPRPRPNPPPRP, the “shrunken log2 fold change” value was 0.0904.

With RRIRIRPPRLPRPRPRPLPYPRP, the “shrunken log2 fold change” value is -0.565.

Turning to RRIRPRPPRLPRPRPRPEEAPRP, the “shrunken log2 fold change” value is 0.0763.

Consider RRIRGRPPRLPRPRPRPCNKPRP, for which the “shrunken log2 fold change” value was -0.442.

RRIRVRPPRLPRPRPRPQQHPRP: the “shrunken log2 fold change” value is -0.0119.

In the case of RRIRKRPPRLPRPRPRPGKHPRP, the “shrunken log2 fold change” value stood at 0.258.

On to RRIRYRPPRLPRPRPRPICIPRP, for which the “shrunken log2 fold change” value was -0.08.

With RRIRCRPPRLPRPRPRPKNIPRP, the “shrunken log2 fold change” value was -0.607.

As to RRIRCRPPRLPRPRPRPQTPPRP, the “shrunken log2 fold change” value was 0.48.

Regarding RRIRNRPPRLPRPRPRPYEAPRP, the “shrunken log2 fold change” value was -0.143.

On to RRIRCRPPRLPRPRPRPSMWPRP, for which the “shrunken log2 fold change” value is -0.648.

On to RRIRTRPPRLPRPRPRPCLIPRP, for which the “shrunken log2 fold change” value is -0.0324.

On to RRIRQRPPRLPRPRPRPEVMPRP, for which the “shrunken log2 fold change” value was determined as 0.0824.

With RRIRDRPPRLPRPRPRPDIDPRP, the “shrunken log2 fold change” value is -0.012.

Take RRIRMRPPRLPRPRPRPDMLPRP: the “shrunken log2 fold change” value was 0.0647.

Take RRIRHRPPRLPRPRPRPCTQPRP: the “shrunken log2 fold change” value was -0.367.
